B1: chimeric anti-PD-1 antibody 76G5B3 (antibody, V domains shown)
VH: QVQLVESGGGVVQPGRSLRLSCAASGFTFSDYGFHWVRQAPGKGLEWVAVIWYDGSNEYYTDSVKGRFTISRDNSKNTLYLQMNSLRAEDTAMYFCVVNPFDYWGQGTLVTVSS
VL: DIQMTQSPSSLSAFVGDRVTITCRASQGINHYLAWYQQKPGKAPNLLILAASTLLSGVPSRFGGRGSGTDFTLIISSLQPEDVATYYCQKYDSAPYTFGQGTKLEIK
notes: Purified from hybridoma of Harbour H2L2 mice: human variable regions, rat constant regions
B2: chimeric anti-PD-1 antibody 21G8F11 (antibody, V domains shown)
VH: EVQLLESGGGLAQPGGSLRLSCAASGFSFNTYLMHWVRQAPGKGLEWVSAISGGGGNTYYADSVKGRFTISRDNSKNTLYLQMNSLRAEDTAVYYCAKENRIPVAPFDYWGQGTLVTVSS
VL: DIQMTQSPSTLSASVGDRVTITCRASQSISTWLAWYQQKPGKAPKLLIYKASSLESGVPSRFSGSGSGTEFTLTISSLQPDDLATYYCQQYNSFSWTFGQGTKVEIK
notes: as for B1

Key:
[1] = biological target: T1, full length human PD-1 on cells (human, UniProt Q15116 25-288); test: cell-based receptor-ligand blocking, flow cytometry: CHO-K1-hPD-1 cells, blocked ligand biotinylated PD-L2-Fc, streptavidin-Alexa 488
T1 construct: Also used here for PD-1 on human T cells/PBMC; also called CHO-K1-hPD-1; hPD-1
Procedure: CHO-K1-hPD-1 cells were cultured and expanded in T-75 culture flasks to 60-80% confluence. The culture media was aspirated, and the cells were washed twice with PBS. The cells were treated with TrypLE™ Express (Invitrogen) and collected. Trypsin was neutralized by the addition of 8 mL culture medium, and cell counts were determined. […] The cells were blocked for 15 minutes at 37° C. Meanwhile, the wells of 96-well round-bottom plates were blocked with 200 uL blocking buffer for 1 hour at 37° C. The blocking buffer was discarded, and 200 uL cells were dispensed to each well of the 96-well plates (2×10^5 cells/well). The plates were centrifuged at 500 g for 5 minutes, and the supernatants were discarded. The cells were resuspended in 100 uL antibody prepared in blocking buffer. […] The plates were incubated at 4° C. for 90 minutes and washed twice with 200 uL blocking buffer. […] The plates were washed three times with blocking buffer and resuspended in 200 uL blocking buffer. The mean fluorescence intensity (MFI) was determined using FACS Calibur (BD).

[2] = biological target: T2, human PD-1^ECD-hFc protein (Immunogen A) (human, UniProt Q15116 25-167); test: ELISA, coated human PD-1ECD-hFc; antibody 0.00001 nM
T2 construct: Biotinylated for the Octet assay; also called PD-1-hFc; hPD-1^ECD-hFc; not shown: human IgG Fc fragment (hFc)
Procedure: (§1) 100 uL of the diluted recombinant proteins were added to each well of 96-well plate. The plates were sealed with plastic film and incubated at 4° C. overnight. The plates were washed twice with wash buffer (PBS+0.01% (v/v) Tween20), and incubated with blocking buffer (PBS+0.01% (v/v) Tween20+1% (w/w) BSA) at room temperature for 2 hours. The blocking buffer was aspirated away, and 100 uL of purified anti-PD-1 antibodies were added to each well and incubated for 2 hours at 37° C. The plates were washed three times with wash buffer (PBS+0.01% (v/v) Tween20). HRP-conjugated secondary antibody (Sigma) was added to each well and incubated for 2 hours at 37° C. After the plates were washed three times with wash buffer, 100 uL TMB substrate was added to each well and incubated for 30 minutes at room temperature. 100 uL stop solution (0.1N HCl) was added to each well to stop the reaction. The absorbance at 450 nm was measured with an ELISA plate reader (384plus SpectraMax, Molecular Devices).

[3] = biological target: T2, human PD-1^ECD-hFc protein (Immunogen A); test: ELISA, coated human PD-1ECD-hFc; antibody 0.0001 nM
Procedure: as §1

[4] = biological target: T2, human PD-1^ECD-hFc protein (Immunogen A); test: ELISA, coated human PD-1ECD-hFc; antibody 0.001 nM
Procedure: as §1

T2 sequence (Q15116 25-167): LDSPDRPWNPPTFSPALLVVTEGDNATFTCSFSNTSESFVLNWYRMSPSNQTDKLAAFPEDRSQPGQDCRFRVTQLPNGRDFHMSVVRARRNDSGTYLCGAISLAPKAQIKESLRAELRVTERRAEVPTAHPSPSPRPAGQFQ
T1 sequence (Q15116 25-288 limits assumed): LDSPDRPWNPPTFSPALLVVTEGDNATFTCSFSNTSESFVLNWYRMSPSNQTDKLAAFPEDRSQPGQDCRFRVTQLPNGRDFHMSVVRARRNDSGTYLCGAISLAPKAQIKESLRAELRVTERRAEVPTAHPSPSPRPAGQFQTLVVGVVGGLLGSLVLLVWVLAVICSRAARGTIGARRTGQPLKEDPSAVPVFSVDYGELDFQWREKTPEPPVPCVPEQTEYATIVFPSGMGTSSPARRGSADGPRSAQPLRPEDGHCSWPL

Binder | IC50 (read off the curve) [1] | OD450 nm [2] | OD450 nm [3] | OD450 nm [4]
B1 | ~2 nM | – | – | –
B2 | – | 0.405 | 0.433 | 0.468
